Measured values published in the nanobody polyreactivity screen of Harvey et al. (2022).

assay: yeast display, Sf9 membrane polyspecificity reagent, FACS + sequencing; frameworks hold sequencing errors
How it was run: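 Galactose-induced (36–48 hours) yeast carrying a synthetic nanobody display library were exposed to 10% biotinylated, detergent-solubilized Sf9 membrane reagent at 4 °C for 1 hour. FACS followed streptavidin microbead enrichment, using low and high (top ~1%) gates for expression (anti-HA) and reagent binding (streptavidin). Colony PCR, MiSeq 2 × 250 sequencing and CDR-length filtering followed. Labels for polyreactivity reflect the gate of origin.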

| Sequence | polyreactivity (PSR sort gate) |
| --- | --- |
| QVQLVESGGGLVKAGGSLRLSCAASGSTFHIYAMGWYRQAPGKERELVAAISKGGGNTYYADSVKGRFTISRDNAKNTVYLQMNSLKPEDTAVYYCAAVPTRYRSYTYTYGGYNYWGQGTQVTVSS | high polyreactivity |
| QVQLVDSGGGLVQAGGSLRLSCAASGCTFGSYAMGWYRQAPGKERELVAGITGSGGRTYYADSVKGRFTISRDNAKNTVYLQMNSLKPEDTAVYYCATTGRRWYYPYHYWGQGTHVTVSS | high polyreactivity |
| QVQLVESGGGLVQAAGSLRLICDASGFTFDLYAMGWYRQAPGKERELVAAISWSGGSTRYADSVKGGFTISRDNSKNTVYLQMTSLKPEDTALYYCARQPRLYFKVKLYGYWGQGTQVTVSS | high polyreactivity |
| QVQLVESGGGLVQAGGTLRISCAASGSIFWYYAMGSYRQAPGKERELVAAISKSGGSTYYADSVKVRFTISRDNAKNTVYLQMNSLKQEDTAVYYCAKYGPVIDGVDYWGQGTQVTVSS | low polyreactivity |
| QVQLVESGGGLVQAGGSLRLSCAAYGSTFASYSMGWYRQAPGKERELVADISKSGTRTYYADSVKGRFTISRDNAKNTVYLQMNSLKPEDTAVYYCATGQYLRTSRFYYWGHGTQVTVSS | high polyreactivity |
| QVQLVESGGGLVQAGGSLRLSCAASGSTFYTNAMGWYRPAPGKVRELVAAISSSGDSTYYADSVKGRFTISRDNAKNTVYLQMKSLKPDDTAVYYCNADLRSYNGFRYYYWGQGTKVTVSS | low polyreactivity |
| QVQLVESGGGLVQAGGSLRLSCAASGRIFKHYAMGWSRQAPGKERELVAAITNGGRTNYADSVKGRFTISRDNAKNTVYLQMNSLKPADTAVYYGNSESSPPYSITKFDYWGQGTQVTVSS | low polyreactivity |
| QVQLVESGGGLVQAGGSLRLSCAASGSILHLYAMGWYRQAPGKERELVARINSGGTTNYADSVKGRFTISRDNAKNTVYLQMNSLKPEDTAVYYCAARFTPYITSDVGHYDYWGQGTQVTVSS | low polyreactivity |
| QVQLVESGGGLVQAGGSLRLSCAASGFIFKRYAMGWYRQAPGKERELVAPITSNGGRTYYADSVKGRFTISRDNAKNTVYLQMNSLKPEHTAVYYCARDSQYYEQDDYWGQGTQVTVSS | high polyreactivity |
| QVQLVESGGGLVQAGGSLRLSCAASGGTFYGYAAMGWYRQAPGKERELVAAISRSGGRTYYADSVKGRFTISRDNAKNTVYLQMNSLKPEDTAVYYCAARRAYSRPPRDYWGQCTQVTVSS | high polyreactivity |
| QVQLVESGGGLVKAGGSLRLSCAASGRIFWHNAMGWYRQAPGNERELVAAITGGGSTYYADSVKGRFTISRDNAKNTVYLQMNSLKPEDTAVYYCATLGSLRYYWPGYDYWGQGTQVTVSS | low polyreactivity |
| QVQLVESGGGLVQAGGSLRFSCAASGSIFDIYGMGWYRQAPGKESELVASISGGAGSTNYADSVKGRFTISRDYAKNTVYLQMNSLKPEDTAVYYCAAVCADPTEYDYWGQGTQVTVSS | low polyreactivity |
| QVQLVESGGGLVQAGGSLRLSCAASGRTSLRYAMGWYRLAPGKDRELVAAIRYGGGSTRYADSVKGRFTISRDNAKNTVYLQMKSLKPEDTAVSYCAARYFPRIQYGRKGYDYWGQGTQVTVSA | low polyreactivity |
| QVQLVESGGGLVQAGGSLRLSCAASGRTFNTNAMGWYRQAPGKERELVAAISGSGVRTYYADSVKGRFTISRDNAKNTVYLQMNSLKPEDTAVYYCAARGQGGPYNYWGQGTQVTVSS | high polyreactivity |
| QDQLEESGGGLVQEGGSLRIICDAYRSTFYANTMGWYRQSTGKERELVATISIDGSTNYADSVKGRFTFSRDYAKNTVYLQMNSLKPEDTAVYYCNADVYSVLYGYWGQGTQVSVSS | low polyreactivity |
| QVQLVESGGGLVQAGGSLRLSCAASGRIVKYAMGWYRQAPGKERELVAAISSSGGTTYYADSVKGRFTISRDNAKNTVYLQMISLKPEDTAVYYCAAPGTYTSRGSDYWGQGTQVTVSS | high polyreactivity |
| QVQLVESGGGLVQAGGSLRLSCAASGSILLYYVMGWYRQAPGKERELVAGISSSGRTYYADSVKGRFTISRDNAKNTVYLQMNSLKPEDTAVYYSAKKYWRGDVRVGYWGQGTQVTVSS | high polyreactivity |
| QVQLVESAGGLVQAGGSHRLSCAPSGRIFGGNAMGWYRRAPGKERELVAGISRRGGSTYYADSVKGRFTITRDNAKNTVHLQMNSLKPEDTAVYYCNAYYRYSVFAEKYDYWGEGTQVTVSS | high polyreactivity |
| QVQLVESGGGLVQAGGSLRLSCAASGFTFRGYTIGWYRQAPGKERELVAAITWSGGSTYYADSVKGRFTISRDNAKNTVYLQMNSLKPEDTAVYYCASYAWYGYVYHHLYDYWGQGTQVTVSS | high polyreactivity |
| QVQLVESGGGLVQAGGSLRLSCAASGSIFYDNGMGWYRQAPGKERELVAAISRGGTTNYADSVKGRFTISRDKAKNTVYLQMNSLKPEDTAVYYCNAETRFTYWGSWYDYWGQGTQVTVSS | low polyreactivity |
| QDHLVESGGGLVQAGGSLRLSCAAYGRTFESYAMGRYRHAPGKERELVAAISYSGGSTYYADSVKGRFTISRDNAKNTVYLQMNSLKPEDTAVYYCAVRWRYKYDYWGQGTQVTVSS | high polyreactivity |

| Sequence | polyreactivity (PSR sort gate) |
| --- | --- |
| QVQHVESRGGLVQAGGSLRLSCAASGFTFYYNAMGWYRQAPVKERELVAIRFRGGNTYYADSVKGRFTISRDNAKNTVYLQMNSLKPEDTAVYYCNADDRGSTYVDFVYWGQGTQVTVSS | low polyreactivity |
| QVQLVESGGGLVQAGGSLRLSCAASGSTFSNYAMGWYRQAPGKERELVASISNGGSTNYADSVKGRFTISRDNAKNTVYLQMNSLKPEDTAVYYCNAESKAKYDYWGQGTQVTVSS | low polyreactivity |
| QVQLVESGGGLVQAGGSLRLSCAASGRIFGRNAMGWYRQAPGKERELVAAISSSGRTYYADSVKGRFTISRDNAKNTVYLQMNSLKPEDTAVYYCAAYGYSWGQGTQVTVSS | high polyreactivity |
| QVQLVESGGCLVQAGGSLRLSCAASGIIFTLYAMGWYRQAPGKEREIVAAISGSGGSTYYADSVKGRFTISRDNAKNTVYLQMNSLKPEDTAVYYCAARGVRGTGLDSRMYYWGQGTQVTVSS | high polyreactivity |
| QVQLVESGGGLVQAGGSLRLSCAASGRTFSENAMGWYRQAPGKERELVAAISGSGGRTYYADSVKGRFTISRDNAKNTVYLQMNILKPEDTAVYFCGKVTRYGSTYDYWGQGTQVTVSS | high polyreactivity |
| QVQLVESGGGLVQAGGSLRLSCAASGSIFQGNAMGWYRQAPGKERELVAAITYSGGSTYYADSVKGRFTISRDNAKNTVYLQMHSLKREDTAVYYCAAFFPSDLVDGYNYWGQGTQVTVSS | low polyreactivity |
| QVQLVESGGGLVQAGGSLRLICAASGIIFQAYTMGWSRQAPGKERELVAAISYSGGSTYYADSVKGRFTISSDNAKNSVYLEMKSLKPEDTAVYYCARRSRYLWRYDYWGQGTQVTVSA | high polyreactivity |
| QVQLVESGGGLVQAGGSLRLSCAASGRIFYKYAMGWYRQAPGKERELVAGITGSGGSTYYADSVKGRFTISRDNAKNTVYLQMNSLKPEDTAVYYCAKRVSYDYWGQGTQVTVSS | low polyreactivity |
| QVQLVESSGGLVQAGGSLRLSCAASGRIFQAYAMGWYRQAPGKEREMVAAITGGGSTNYADSVKGRFTISRDNAKNTVYLQMNSLKPEDTAVYYCNAVTGTYGWGPQAREQEDYWGQGTQVTVSS | low polyreactivity |
| QVQLVESGGGLVQAGGSLRLSCAASGSIFSVYDMGWYRQAPGKERELVAAISRSGGSTYYADSVKGRFTISRDNAKNTVYLQRNSLKPEDTAVYYCNAVRRTGGHGDYWGQGTQVTVSS | high polyreactivity |
| QVQLVESGGGLVQAGGSLRLSCAASGSIFAFNAMGWYRQAPGKERELVAGITISDSTNYADSVKGRFTISRDNAKNTVYLQMNSLKPEDTAVYYCNADYEQYVYWYWFIKYDYWGQGTQVTVSS | low polyreactivity |
| QVQLVESGGGLLQAGGSRRLSCAASGRTFYSYGMGWYRRAPGKERELVARNTWSGGTYYADSVKGRFTISRDNAKNTVYLQMNSLKPEDTAVYYCAKRSYYWEYYYWGQGTQVTVSA | high polyreactivity |
| QVQLVESGGGLVQAGGSLRLSCDASGSIFSKYAMGWYRQAPGKERELVAAISWSGTSTYYADSVKGRFTISRDNAKNTVYLQMNSLKPEDTAVYYCAASSPRSLSLLGYWGQGTQVTVSS | low polyreactivity |
| QVQLVESGGGLVQAGGSLRLSCAASGSTFYLNAMGWYRQAPGKERELVAAISSGGNTNYADSVKGRFTISRDNAKNTVYLQMNSLKPEDTAVYYCAAVYLSWYGLGEYWGQGTQVTVSS | low polyreactivity |
| QVQLVESGGGLVQAGCSLRLSCAASGSIFFSYAMGWYRQAPGKEREFVAAINSDDASTYADSVKGRFTISRDNAKNTVYLQKNSLNPEDTAVYYCAASFLWSWYDYWGQGTHVTVSS | low polyreactivity |
| QVQVVESGGGLVQAGGSLRLSCAASGFTYGNNGMGWYRQAPGKERELVATISWSGGSTYADSVKGRFTISRDNAKNTVYLQMNSLKPEDTAVYYCAARYFVYYQEVDYWGQGTQVTVSS | low polyreactivity |
| QVQLVESGGGLVQAGGSLRLSCAASGSTFTTYAMGWYRQAPGKEREFVASIRWRGGHTYYADSVKGRFTISRDNAKNTVYLQMNSLKPEDTAVYFCARRVDYISSKYGYWGQGTQVTVSS | high polyreactivity |
| QVQLVESAGGLVQAGGSLRLSCAASGITFKYNAMGWYRQAPGKERELVAAISKGGGSTYYADSVKGRFTISRDNAKNTVYLQMNSLKPEDTAVYYCAARRWYRFDYWGQGTQVTVSS | high polyreactivity |
| QDQLLESGGGLVQAGGSLRLSCAASGRTFRYYTMGWYRQAPGKEREFVAAISSTGGTYYADSVKGRFTISRDNAKNTVYLQMNSLKPEDTAVYYCAATFIQFVVNVELYDYDYWGQGTQVTVSS | low polyreactivity |
| QVQHVESGGGLVQAGGSLRLSCAASGRTFSRYAMGWYRQAPGKERELVAAISSRGGSTYYADSVKGRFTISRDYAKNTVYLQMNSLKPEDTAVYYCNADSKVDQYGYDYWGQGTQVTVSS | high polyreactivity |
